Measurements reported in publication PMC6219380.

Biological target: SgcC5 (unlabelled) (Streptomyces globisporus)
Test: SEC

stoichiometry N: 2
Substance: SgcC5 (unlabelled) (enzyme)
